Legend:
MBP-ZFa (OZ052) = MBP-ZFa (OZ052) (artificial); test: EMSA; biotinylated oligo, flanks not given; chimera-DNA dimer also seen; text states low nanomolar affinity without values; conditions: label: 5'-biotin
Protocol: (§1) From this analysis, the amount of ZF-chimera present in cells was estimated at approximately 5000 per cell or 8 μM. The plasmid concentration in cells was determined to be approximately 127 per cell or […]. These values were used to design/select ZF domains with appropriate affinity and to design DNA scaffolds with enough binding sites to accommodate all ZF fusion proteins. FIG. 4B is a western blot analysis comparing the soluble and insoluble protein levels of unmodified MBP with MBP fused to 1, 2, 3 or 4 fingers as indicated. Flow cytometric analysis of cellular fluorescence levels of superfolder green fluorescent protein (sfGFP) fused to increasing number of fingers as indicated (FIG. 4B; right). FIG. 4C is an EMSA of purified PBSII-nYFP and cYFP-Zif268 chimeras using […] DNA with PBSII or Zif268 binding sites. MW, molecular weight ladder. Arrow indicates chimera-DNA complexes. EMSA of purified MBP-ZFa, MBP-ZFb and MBP-ZFc chimeras using varying amounts of biotinylated DNA containing the ZFa, ZFb or ZFc binding site is shown in FIG. 4D. Detection of DNA and DNA-protein complexes was with streptavidin-HRP against biotinylated DNA. […]
(§2) For EMSA with PBSII and Zif268, 1 μg of the purified PBSII-nYFP and cYFP-Zif268 chimeras were incubated with 375 μM scaffold DNA for 3 h. […] Nucleic acid-protein complexes were detected under UV light. […]

MBP-ZFb (OZ300) = MBP-ZFb (OZ300) (artificial); test: EMSA; biotinylated oligo, flanks not given; text states low nanomolar affinity without values; conditions: label: 5'-biotin
MBP-ZFb (OZ300) (artificial), sequence (chain, as listed by the source): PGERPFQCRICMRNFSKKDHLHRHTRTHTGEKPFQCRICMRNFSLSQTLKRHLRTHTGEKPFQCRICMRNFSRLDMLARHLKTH
Protocol: as §1, §2

PBSII-nYFP chimera [1] = target: PBSII-nYFP chimera (artificial); test: EMSA; full oligo sequence not given; text states low nanomolar affinity without values; conditions: tags: nYFP C-terminal fusion, His
PBSII-nYFP chimera (artificial), sequence (chain, as listed by the source mutant): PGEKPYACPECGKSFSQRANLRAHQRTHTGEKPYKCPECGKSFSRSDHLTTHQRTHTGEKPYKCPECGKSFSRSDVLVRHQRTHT

MBP-ZFc (OZ076) = MBP-ZFc (OZ076) (artificial); test: EMSA; biotinylated oligo, flanks not given; text states low nanomolar affinity without values; conditions: label: 5'-biotin
MBP-ZFc (OZ076) (artificial), sequence (chain, as listed by the source): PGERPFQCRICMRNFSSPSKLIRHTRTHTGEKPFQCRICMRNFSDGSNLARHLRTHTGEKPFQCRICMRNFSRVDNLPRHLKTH
Protocol: as §1, §2

cYFP-Zif268 chimera [2] = test: SPR; random scaffold reference, 1 uM protein; used to correct for unspecific binding
cYFP-Zif268 chimera [3] = test: EMSA; full oligo sequence not given; text states low nanomolar affinity without values
PBSII-nYFP chimera [4] = target: PBSII-nYFP chimera (artificial); test: SPR; injected as mixture with cYFP-Zif268, 5 uM; same SPR buffer with 0.1 mM ZnCl2; conditions: tags: nYFP C-terminal fusion, His
Protocol: Proteins that were directly dialyzed against buffer A (see above) were used in surface plasmon resonance (SPR) experiments. Proteins were further concentrated using Amicon Ultra-15 Centrifugal Filter Unit with Ultracel-10 membrane. The experiments were conducted using T100 apparatus (GE Healthcare, Biacore) and streptavidin-coated sensor chip (SA). […] The biotinylated single-stranded anchor DNA (5′-CGCTCGAGTAGTAAC-3′-Biotin; SEQ ID NO: 41) was immobilized on all four flow-cells. The anchor allowed capture of the double-stranded DNA molecule with complementary overhang. A DNA scaffold (5′-[…]-3′; SEQ ID NO: 42) was used that contained ZF binding sites for Zif268 and PBSII (underlined), respectively. Control DNA (5′-[…]-3′; SEQ ID NO: 43) contained a scrambled version of the scaffold and was used to correct the responses for unspecific binding of ZF chimeras. The control DNA was immobilized in the first flow-cell, while the DNA scaffold was used in the second flow cell. Typically, immobilization of control and scaffold DNA used 0.5 μM DNA and was performed for 5 min at 5 μl/min. Protein binding was measured following injection of appropriate concentration of PBSII-nYFP and/or cYFP-Zif268 chimeras in the SPR buffer. The surface of the sensor chip was regenerated by two 30 s injections of 50 mM NaOH that removed the DNA from the anchor.

cYFP-Zif268 chimera [5] = test: SPR; 20 mM HEPES pH 7.4, 150 mM NaCl, 2 mM DTT, 0.1 mM ZnCl2; 1 and 5 uM protein

MBP-ZFa (OZ052) (artificial), sequence (chain, as listed by the source): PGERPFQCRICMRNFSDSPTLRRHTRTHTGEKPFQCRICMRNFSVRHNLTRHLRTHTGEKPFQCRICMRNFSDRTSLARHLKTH

B1: ZFa binding site DNA (dsDNA)
DNA 1: GTCGATGCC
DNA 2: GGCATCGAC
MBP-ZFa (OZ052)
  binding result: binds

B2: ZFb binding site DNA (dsDNA)
DNA 1: GCGGCTGGG
DNA 2: CCCAGCCGC
MBP-ZFb (OZ300)
  binding result: binds

B3: PBSII binding site DNA (dsDNA)
DNA 1: GTGTGGAAA
DNA 2: TTTCCACAC
PBSII-nYFP chimera [1]
  binding result: binds

B4: ZFc binding site DNA (dsDNA)
DNA 1: GAGGACGGC
DNA 2: GCCGTCCTC
MBP-ZFc (OZ076)
  binding result: binds

B5: scrambled control scaffold (dsDNA)
DNA 1: GTTACTACTCGAGCGGAATTCATCTAAGTTACTAGAGTCCTTATAGTTGACTCTTGTTCCACATTCTACTGTACACGCTCAGTACTCGAGCATACCTATCTCCTGCAGTACA
DNA 2: TGTACTGCAGGAGATAGGTATGCTCGAGTACTGAGCGTGTACAGTAGAATGTGGAACAAGAGTCAACTATAAGGACTCTAGTAACTTAGATGAATTCCGCTCGAGTAGTAAC
cYFP-Zif268 chimera [2]
  binding result: no binding

B6: Zif268 binding site DNA (dsDNA)
DNA 1: GCGTGGGCG
DNA 2: CGCCCACGC
cYFP-Zif268 chimera [3]
  binding result: binds

B7: DNA scaffold with Zif268 and PBSII sites, 2-bp spacer (dsDNA)
DNA 1: GTTACTACTCGAGCGATCGGAATTCGAAGGGGAATTGCTGCTGCGGTGTTTGGATGGAGCGTGGGCGGGGTGTGGAAATTGATGCTGCATTGACCACCCAAGACGACTGCAGTACA
DNA 2: TGTACTGCAGTCGTCTTGGGTGGTCAATGCAGCATCAATTTCCACACCCCGCCCACGCTCCATCCAAACACCGCAGCAGCAATTCCCCTTCGAATTCCGATCGCTCGAGTAGTAAC
PBSII-nYFP chimera [4]
  binding result: binds
cYFP-Zif268 chimera [5]
  binding result: binds

— patent US20130130347, “CONSTRUCTS AND METHODS FOR THE ASSEMBLY OF BIOLOGICAL PATHWAYS” (CORNELL UNIVERSITY, published 2013)
